Test results taken from patent US20120316071A1 (published 2012).

B1: Fab VH5-51_IGHD5-18*01>3_IGHJ4*01 G100K/G104T G24T/S28R/G35V (H:KT TRV) & V3-4_IGLJ1*01 T55A (Fab, V domains shown)
VH: EVQLVQSGAEVKKPGESLKISCKTSGYRFTSYWIVWVRQMPGKGLEWMGIIYPGDSDTRYSPSFQGQVTISADKSISTAYLQWSSLKASDTAMYYCARRKYSYTYDYFDYWGQGTLVTVSS
VL: QTVVTQEPSFSVSPGGTVTLTCGLSSGSVSTSYYPSWYQQTPGQAPRTLIYSTNARSSGVPDRFSGSILGNKAALTITGAQADDESDYYCVLYMGSGISYVFGTGTKVTVL
notes: Fab; expressed from plasmid A (CH1, His6 and Flag tags) and plasmid E (lambda CL)
B2: Fab VH5-51_IGHD5-18*01>3_IGHJ4*01 G100K/G104T G24T/S28R/G35V (H:KT TRV) & V3-4_IGLJ1*01 V91I (Fab, V domains shown)
VH: EVQLVQSGAEVKKPGESLKISCKTSGYRFTSYWIVWVRQMPGKGLEWMGIIYPGDSDTRYSPSFQGQVTISADKSISTAYLQWSSLKASDTAMYYCARRKYSYTYDYFDYWGQGTLVTVSS
VL: QTVVTQEPSFSVSPGGTVTLTCGLSSGSVSTSYYPSWYQQTPGQAPRTLIYSTNTRSSGVPDRFSGSILGNKAALTITGAQADDESDYYCILYMGSGISYVFGTGTKVTVL
notes: as for B1
B3: Fab VH5-51_IGHD5-18*01>3_IGHJ4*01 G100K/G104T G24T/S28R/G35V (H:KT TRV) & V3-4_IGLJ1*01 V91P (Fab, V domains shown)
VH: EVQLVQSGAEVKKPGESLKISCKTSGYRFTSYWIVWVRQMPGKGLEWMGIIYPGDSDTRYSPSFQGQVTISADKSISTAYLQWSSLKASDTAMYYCARRKYSYTYDYFDYWGQGTLVTVSS
VL: QTVVTQEPSFSVSPGGTVTLTCGLSSGSVSTSYYPSWYQQTPGQAPRTLIYSTNTRSSGVPDRFSGSILGNKAALTITGAQADDESDYYCPLYMGSGISYVFGTGTKVTVL
notes: as for B1
B4: Fab VH5-51_IGHD5-18*01>3_IGHJ4*01 G100K/G104T G24T/S28R/G35V (H:KT TRV) & V3-4_IGLJ1*01 S96G (Fab, V domains shown)
VH: EVQLVQSGAEVKKPGESLKISCKTSGYRFTSYWIVWVRQMPGKGLEWMGIIYPGDSDTRYSPSFQGQVTISADKSISTAYLQWSSLKASDTAMYYCARRKYSYTYDYFDYWGQGTLVTVSS
VL: QTVVTQEPSFSVSPGGTVTLTCGLSSGSVSTSYYPSWYQQTPGQAPRTLIYSTNTRSSGVPDRFSGSILGNKAALTITGAQADDESDYYCVLYMGGGISYVFGTGTKVTVL
notes: as for B1
B5: Fab VH5-51_IGHD5-18*01>3_IGHJ4*01 G100K/G104T G24T/S28R/G35V (H:KT TRV) & V3-4_IGLJ1*01 S57A (Fab, V domains shown)
VH: EVQLVQSGAEVKKPGESLKISCKTSGYRFTSYWIVWVRQMPGKGLEWMGIIYPGDSDTRYSPSFQGQVTISADKSISTAYLQWSSLKASDTAMYYCARRKYSYTYDYFDYWGQGTLVTVSS
VL: QTVVTQEPSFSVSPGGTVTLTCGLSSGSVSTSYYPSWYQQTPGQAPRTLIYSTNTRASGVPDRFSGSILGNKAALTITGAQADDESDYYCVLYMGSGISYVFGTGTKVTVL
notes: as for B1
B6: Fab VH5-51_IGHD5-18*01>3_IGHJ4*01 G100K/G104T G24T/S28R/G35V (H:KT TRV) & V3-4_IGLJ1*01 V91H (Fab, V domains shown)
VH: EVQLVQSGAEVKKPGESLKISCKTSGYRFTSYWIVWVRQMPGKGLEWMGIIYPGDSDTRYSPSFQGQVTISADKSISTAYLQWSSLKASDTAMYYCARRKYSYTYDYFDYWGQGTLVTVSS
VL: QTVVTQEPSFSVSPGGTVTLTCGLSSGSVSTSYYPSWYQQTPGQAPRTLIYSTNTRSSGVPDRFSGSILGNKAALTITGAQADDESDYYCHLYMGSGISYVFGTGTKVTVL
notes: as for B1
B7: Fab VH5-51_IGHD5-18*01>3_IGHJ4*01 G100K/G104T G24T/S28R/G35V (H:KT TRV) & V3-4_IGLJ1*01 V91L (Fab, V domains shown)
VH: EVQLVQSGAEVKKPGESLKISCKTSGYRFTSYWIVWVRQMPGKGLEWMGIIYPGDSDTRYSPSFQGQVTISADKSISTAYLQWSSLKASDTAMYYCARRKYSYTYDYFDYWGQGTLVTVSS
VL: QTVVTQEPSFSVSPGGTVTLTCGLSSGSVSTSYYPSWYQQTPGQAPRTLIYSTNTRSSGVPDRFSGSILGNKAALTITGAQADDESDYYCLLYMGSGISYVFGTGTKVTVL
notes: as for B1
B8: Fab VH5-51_IGHD5-18*01>3_IGHJ4*01 G100K/G104T G24T/S28R/G35V (H:KT TRV) & V3-4_IGLJ1*01 V91G (Fab, V domains shown)
VH: EVQLVQSGAEVKKPGESLKISCKTSGYRFTSYWIVWVRQMPGKGLEWMGIIYPGDSDTRYSPSFQGQVTISADKSISTAYLQWSSLKASDTAMYYCARRKYSYTYDYFDYWGQGTLVTVSS
VL: QTVVTQEPSFSVSPGGTVTLTCGLSSGSVSTSYYPSWYQQTPGQAPRTLIYSTNTRSSGVPDRFSGSILGNKAALTITGAQADDESDYYCGLYMGSGISYVFGTGTKVTVL
notes: as for B1
B9: Fab VH5-51_IGHD5-18*01>3_IGHJ4*01 G100K/G104T G24T/S28R/G35V (H:KT TRV) & V3-4_IGLJ1*01 V91T (Fab, V domains shown)
VH: EVQLVQSGAEVKKPGESLKISCKTSGYRFTSYWIVWVRQMPGKGLEWMGIIYPGDSDTRYSPSFQGQVTISADKSISTAYLQWSSLKASDTAMYYCARRKYSYTYDYFDYWGQGTLVTVSS
VL: QTVVTQEPSFSVSPGGTVTLTCGLSSGSVSTSYYPSWYQQTPGQAPRTLIYSTNTRSSGVPDRFSGSILGNKAALTITGAQADDESDYYCTLYMGSGISYVFGTGTKVTVL
notes: as for B1
B10: Fab VH5-51_IGHD5-18*01>3_IGHJ4*01 G100K/G104T G24T/S28R/G35V (H:KT TRV) & V3-4_IGLJ1*01 V91N (Fab, V domains shown)
VH: EVQLVQSGAEVKKPGESLKISCKTSGYRFTSYWIVWVRQMPGKGLEWMGIIYPGDSDTRYSPSFQGQVTISADKSISTAYLQWSSLKASDTAMYYCARRKYSYTYDYFDYWGQGTLVTVSS
VL: QTVVTQEPSFSVSPGGTVTLTCGLSSGSVSTSYYPSWYQQTPGQAPRTLIYSTNTRSSGVPDRFSGSILGNKAALTITGAQADDESDYYCNLYMGSGISYVFGTGTKVTVL
notes: as for B1

Each binder was assayed against T1, Recombinant Human DLL4 (human, UniProt Q9NR61 27-524) (assay: ELISA, DLL4 coated on the plate, Fab at 100 nM, signal minus blank).
T1 construct: Bought recombinant human DLL4 (R&D Systems Cat#1506-D4/CF); also called delta-like protein 4; Delta-like 4

First: B1
Second: B2
The “ELISA Signal-blank (100 nM Fab)” value of the first is higher: 0.382 for the first, 0.336 for the second.

Compared with B3, B4 is higher in “ELISA Signal-blank (100 nM Fab)” value: 0.078 for the first, 0.562 for the second.

Compared with B5, B6 is lower in “ELISA Signal-blank (100 nM Fab)” value: 0.598 for the first, 0.127 for the second.

First: B7
Second: B8
The “ELISA Signal-blank (100 nM Fab)” value of the first is higher: 0.734 for the first, 0.248 for the second.

First: B9
Second: B10
The “ELISA Signal-blank (100 nM Fab)” value of the first is lower: 0.197 for the first, 0.203 for the second.
